Assay results reported in US7511119B2, “PRAME peptide analogues” (MannKind Corporation, priority 2005, dated 2009).
Where two headings read alike, the source gives them in different places. Values belong to the molecule of their own block, whether it stands above or below them. Numbered stars: 1 amine (or outer) side, 2 acyl side, 3 side chain; on linkers, the order of the positions; unused ones are H or OH. Square brackets hold non-standard residues; d marks the D form. Ends that are not written are not given here. Tyr(Me) = O-methyl-Tyr, COc1ccc(C[C@H](N[*:1])C(=O)[*:2])cc1; Phe(4-NO2) = N[C@@H](Cc1ccc([N+](=O)[O-])cc1)C(=O)O; Bta = N[C@@H](Cc1csc2ccccc12)C(=O)O; Phg = N[C@H](C(=O)O)c1ccccc1; Nle = CCCC[C@H](N)C(=O)O; Orn = NCCC[C@H](N)C(=O)O

What was measured:
[1] = test system: native PSMA288-297 peptide; assay: Cross-reactive immunogenicity of PSMA analogs, IFN-gamma ELISPOT; assay type: in vivo, HHD transgenic mice; settings: peptide plus pI:C intranodal; FIG. 22
Method: Groups of HHD transgenic mice (n=8) were immunized with peptide (natural epitope PSMA288-297, or analogs bearing substitutions at primary or secondary anchor residues) by direct inoculation into the inguinal lymph nodes, with 25 μg in 25 μl of PBS+12.5 μg of pI:C to each lymph node at day 0, 3, 14 and 17.
Mice were sacrificed at 10 days after the last boost, and splenocytes prepared and assessed for IFN-γ production by ELISPOT analysis. […] At 48 hours after incubation, the assay was developed and the frequency of cytokine-producing T cells that recognized native PSMA288-297 peptide was automatically counted. The data is represented in FIG. 22 as the number of spot forming colonies/well (mean of triplicates±SD). […] To the extent that the poor immunogenicity of the native epitope reflects tolerance, the improved activity of these analogs represents tolerance breaking.

splenocytes = assay: Ex vivo IFN-gamma production after re-stimulation with wild-type NY-ESO-1157-165 (ELISA); assay type: in vivo, mice; settings: 10 μM wild-type peptide, 3 and 6 days; FIG. 17
From the text: Supernatants were harvested and the concentration of IFN-γ measured by ELISA.

[2] = test system: target cells coated with wild-type peptide; assay: In vivo cytotoxicity against wild-type NY-ESO-1 peptide-coated target cells; set-up: species or system HHD mice; settings: plasmid entrain, peptide amplify; FIGS. 15-16
Method: (§1) These cells were then stained with CFSE^hi and CFSE^med fluorescence (4.0 μM or 1 μM, respectively, for 15 minutes) and intravenously co-injected into immunized mice with an equal number of control splenocytes stained with CFSE^lo fluorescence (0.4 μM). Eighteen hours later the specific elimination of target cells was measured by removing the spleens and PBMC from challenged animals and measuring CFSE fluorescence by flow cytometry. The relative depletion of the populations corresponding to peptide loaded splenocytes was calculated relative to the control (unloaded) population and expressed as % specific lysis.

[3] = test system: T cells specific for the wild-type NY-ESO-1157-165 epitope; assay: Cross-reactivity and functional avidity of NY-ESO-1 157-165 analogs (IFN-gamma production ex vivo); assay type: cell-based, HHD transgenic mice; settings: relative to wild-type peptide; FIG. 13
HLA-A*0201 = HLA-A*0201 (Homo sapiens, UniProt P04439, D140Y/D185E/D98H/E176V/E277Q/G131W/G231S/I119V/I121R/I166T/I218V/L300P/L318F/N151K/N90K/P208A/P217A/Q86G/Q94H/R138H/R169H/T345S); assay: Peptide binding using T2 cells; settings: half maximal binding of wild-type peptide relative to analog;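 also: Read-out is peptide-induced stabilization of HLA-A*0201 on the cell surface, reflecting mainly Kon at limiting peptide levels and both Kon and Koff at saturating levels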
From the text: Thus, at limiting concentrations of peptide, it is a measurement of Kon mostly and at saturation levels of peptide it is a measurement of both Kon and Koff.
Thus, at limiting concentrations of peptide, this is a measurement of Kon mostly and at saturation levels of peptide that is a measurement of both Kon and Koff.

[4] = test system: target cells coated with natural peptide; assay: In vivo cytotoxicity against splenocytes coated with natural SSX-2 41-49 peptide (CFSE); set-up: species or system HHD mice; settings: spleen and blood; targets coated with 20 μg/ml and 1 μg/ml natural peptide
Method: Eight groups of mice (n=4) were immunized with plasmid expressing SSX-241-49 natural epitope, by direct inoculation into the inguinal lymph nodes with 25 μg in 25 μl of PBS/each lymph node at day 0, 3, 14 and 17. This was followed by two additional peptide boosts (similar amount) at day 28 and 31, using a negative control peptide (Melan A 26-35 “EAA”), natural peptide or analogs as shown in FIG. 9.
as §1, with “To evaluate the in vivo response against natural peptide, splenocytes were isolated from littermate control HHD mice and incubated with 20 μg/mL or 1 μg/ml of natural peptide for 2 hours. These” for “These”, “CFSE^hi” for “CFSE^hi and CFSE^med”, “[…]” for “1 μM, respectively,”, “spleen” for “the spleens”, “lysis. FIG. 10 (spleen) and 11 (blood) show the in vivo cytotoxicity elicited by the regimens described in FIG. 7.” for “lysis.”

[5] = test system: T cell lines against natural epitope SSX-241-49; assay: Cross-reactivity and functional avidity: IFN-gamma production by T cell lines raised against natural SSX-2 41-49; assay type: cell-based, HHD transgenic mice; settings: T cells raised to native peptide tested on analogs; footnote * and unit not given;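 also: analogs presented ex vivo by competent APCs to T cells specific for the non-mutated epitope, scored by lowest activating concentration, peak cytokine effect and concentration at that peak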
624.38 melanoma cells = assay: Ex vivo cytotoxicity against human tumor cells after boost with SSX-2 analogs; assay type: in vivo; settings: plasmid prime, peptide boost; FIG. 12
Method: Eight groups of mice (n=4) were immunized with plasmid expressing SSX-241-49 natural epitope by direct inoculation into the inguinal lymph nodes with 25 ug in 25 ul of PBS/each lymph node at day 0, 3, 14 and 17. This was followed by two additional peptide boosts (similar amount) at day 28 and 31, using a negative control peptide (Melan A 26-35 “EAA”), natural peptide or analogs as shown in FIG. 9.

HLA-A*0201 on T2 cells [6] = biological target: T1, HLA-A*0201 on T2 cells (human); assay: T2 cells, wild-type/analog half-maximal binding
T1 construct: whole, on cells; Class I MHC on the surface of T2 cells, detected with a fluorescent anti-A2 antibody; beta2-microglobulin is not mentioned for this assay; also called MHC class I (A2 allele)

[7] = biological target: T2, HLA-A*0201 class I monomer of the iTopia Epitope Discovery System; assay: iTopia affinity assay
T2 construct: also called A0201 restricted MHC Class 1 molecules; MHC monomer

HLA-A*0201 on T2 cells [8] = biological target: T1, HLA-A*0201 on T2 cells; assay: T2 cells, wild-type/analog half-maximal binding; remark: listed apart in the source
HLA-A*0201 on T2 cells [9] = biological target: T1, HLA-A*0201 on T2 cells; assay: T2 cells, wild-type/analog half-maximal binding; remark: listed apart in the source

Molecule: GLWSIPVHPI [Peptide P290W]
priming of immune response against native PSMA288-297 (IFN-γ ELISPOT), in words [1]: increased priming

Molecule: S157F L158V C165V: NY-ESO-1 157-165 analog with S157F, L158V and C165V substitutions (FVLMWITQV; UniProt P78358 157-165, looked up, variant S157F L158V C165V)
IFN-gamma production upon ex vivo re-stimulation with wild-type peptide (splenocytes): increased amounts of IFN-gamma

Molecule: L158V C165V: NY-ESO-1 157-165 analog with L158V and C165V substitutions (SVLMWITQV; UniProt P78358 157-165, looked up, variant L158V C165V)
in vivo cytotoxicity (% specific lysis), in words [2]: effect in the same range with wild-type peptide
IFN-gamma production upon ex vivo re-stimulation with wild-type peptide (splenocytes): increased amounts of IFN-gamma

Molecule: S157Y L158I C165V: NY-ESO-1 157-165 analog with S157Y, L158I and C165V substitutions (YILMWITQV; UniProt P78358 157-165, looked up, variant S157Y L158I C165V)
activity in cross-reactivity assay (NY-ESO-1 157-165 specific T cells), in words [3]: increased activity relative to the wild-type peptide

Molecule: SLLMWITQC [Nyeso-1 157-165, reference compound]
in vivo cytotoxicity (% specific lysis), in words [2]: variable cytotoxicity

Molecule: S157K L158V C165V: NY-ESO-1 157-165 analog with S157K, L158V and C165V substitutions (KVLMWITQV; UniProt P78358 157-165, looked up, variant S157K L158V C165V)
in vivo cytotoxicity (% specific lysis), in words [2]: effect in the same range with wild-type peptide

Molecule: {Abu}LPSIPVHPI (XLPSIPVHPI; Abu at position 288; T cell peptide epitope analog) [Peptide G288Abu, PSMA288-297 analog with G288Abu substitution]
priming of immune response against native PSMA288-297 (IFN-γ ELISPOT), in words [1]: slightly higher (but significant) activity

Molecule: NY-ESO-1157-166: 10-mer of the wild-type sequence NY-ESO-1 157-166 (SLLMWITQCF; UniProt P78358 157-166, looked up, fragment) [reference compound]
activity in cross-reactivity assay (NY-ESO-1 157-165 specific T cells), in words [3]: no immunological activity

Molecule: L158V: NY-ESO-1 157-165 analog with L158V substitution (SVLMWITQC; UniProt P78358 157-165, looked up, variant L158V) [Peptide L158V]
activity in cross-reactivity assay (NY-ESO-1 157-165 specific T cells), in words [3]: partial retention of activity

B1: SSX2 41-49 (K41(O-methyl Tyr)) (peptide)
peptide: [Tyr(Me)]ASEKIFYV
Relative affinity (1/RA) (HLA-A*0201 on T2 cells [6]): 0.8 1/RA

B4: PRAME425-433 analog with Phe at P1 (peptide)
peptide: FLLQHLIGL
notes: also called Phe P1 analog; S425F
fold difference of affinity (ED50) against the native peptide [7]: ≤ 3 fold

B5: PRAME425-433 analog with Thr at P1 (peptide)
peptide: TLLQHLIGL
fold difference of affinity (ED50) against the native peptide [7]: ≤ 3 fold

B8: PRAME425-433 analog with Orn at P1 (peptide)
peptide: [Orn]LLQHLIGL
fold difference of affinity (ED50) against the native peptide [7]: ≤ 3 fold

B12: SSX2 41-49 (K41F, A42V) (peptide)
peptide: FVSEKIFYV
Relative affinity (1/RA) (HLA-A*0201 on T2 cells [8]): 3.1 1/RA

B14: SSX2 41-49 (K41W, A42V) (peptide)
peptide: WVSEKIFYV
Relative affinity (1/RA) (HLA-A*0201 on T2 cells [8]): 3 1/RA

B22: SSX2 41-49 (K41W, A42M) (peptide)
peptide: WMSEKIFYV
Relative affinity (1/RA) (HLA-A*0201 on T2 cells [8]): 2.9 1/RA

B24: SSX2 41-49 (K41(Phe-4NO2)) (peptide)
peptide: [Phe(4-NO2)]ASEKIFYV
notes: also called para-nitrophenylalanine analog
Relative affinity (1/RA) (HLA-A*0201 on T2 cells [6]): 1.1 1/RA

More lines, main results first:

Relative affinity (1/RA) (HLA-A*0201): 1.7
Molecule: YASEKIFYV-OH [SSX2 41-49 (K41Y)]
in vivo cytotoxicity (% specific lysis), in words [4]: increased activity
Cross-reactivity and fct avidity (native to analogs)* [5]: 3

Relative affinity (1/RA) (HLA-A*0201): 1.5
Molecule: FASEKIFYV [SSX2 41-49 (K41F)]
in vivo cytotoxicity (% specific lysis), in words [4]: increased activity
Cross-reactivity and fct avidity (native to analogs)* [5]: 0.3

Relative affinity (1/RA) (HLA-A*0201): 1.6
Molecule: CC[C@H](C)[C@H](NC(=O)[C@H](Cc1ccc(O)cc1)NC(=O)[C@H](Cc1ccccc1)NC(=O)[C@@H](NC(=O)[C@H](CCCCN)NC(=O)[C@H](CCC(=O)O)NC(=O)[C@H](CO)NC(=O)[C@@H](NC(=O)[C@@H](N)Cc1ccccc1)C(C)C)[C@@H](C)CC)C(=O)O [SSX2 41-49 (K41F, A42V, V49I)]
Cross-reactivity and fct avidity (native to analogs)* [5]: 0.3
cytotoxicity against human tumor cells expressing natural SSX-2 41-49 epitope (624.38 melanoma cells): increased cytotoxicity

fold difference of affinity (ED50) against the native peptide [7]: ≤ 3 fold
B2: PRAME425-433 analog with Hse at P1 (peptide)
peptide: XLLQHLIGL
modifications: P1 = Hse (homoserine)

fold reduction of affinity (ED50) against the native peptide [7]: ≤ 3 fold
B3: PRAME425-433 analog with Ile at P2 (peptide)
peptide: SILQHLIGL

fold difference of affinity (ED50) against the native peptide [7]: ≤ 3 fold
B6: PRAME425-433 analog with Tyr at P1 (peptide)
peptide: YLLQHLIGL

Relative affinity (1/RA) (HLA-A*0201 on T2 cells [6]): 2.5 1/RA
B7: SSX2 41-49 (K41(Phg)) (peptide)
peptide: [Phg]ASEKIFYV

fold reduction of ED50 against the native peptide [7]: > 4 fold
B9: PRAME425-433 S425F L433Nle analog (peptide)
peptide: FLLQHLIG[Nle]
notes: the second is probably S425T L433Nle

binding result [7]: binds
B10: PRAME425-433 S425T L426M L433Nle analog (peptide)
peptide: TMLQHLIG[Nle]

binding result [7]: binds
B11: PRAME425-433 analog with Phe at P1, Met at P2 and Nle at PΩ (peptide)
peptide: FMLQHLIG[Nle]

Relative affinity (1/RA) (HLA-A*0201 on T2 cells [9]): 1.7 1/RA
B13: SSX2 41-49 (A42M) (peptide)
peptide: KMSEKIFYV

Relative affinity (1/RA) (HLA-A*0201 on T2 cells [8]): 1.2 1/RA
B15: SSX2 41-49 (K41Y, A42L) (peptide)
peptide: YLSEKIFYV

Relative affinity (1/RA) (HLA-A*0201 on T2 cells [9]): 1.7 1/RA
B16: SSX2 41-49 (A42I) (peptide)
peptide: KISEKIFYV

Relative affinity (1/RA) (HLA-A*0201 on T2 cells [8]): 3.3 1/RA
B17: SSX2 41-49 (K41W, A42L) (peptide)
peptide: WLSEKIFYV

Relative affinity (1/RA) (HLA-A*0201 on T2 cells [8]): 2.7 1/RA
B18: SSX2 41-49 (K41F, A42I) (peptide)
peptide: FISEKIFYV

Relative affinity (1/RA) (HLA-A*0201 on T2 cells [8]): 0.6 1/RA
B19: SSX2 41-49 (K41Y, A42M) (peptide)
peptide: YMSEKIFYV

Relative affinity (1/RA) (HLA-A*0201 on T2 cells [6]): 1.7 1/RA
B20: SSX2 41-49 (K41Y) (peptide)
peptide: YASEKIFYV

Relative affinity (1/RA) (HLA-A*0201 on T2 cells [6]): 1.5 1/RA
B21: SSX2 41-49 (K41F) (peptide)
peptide: FASEKIFYV

Relative affinity (1/RA) (HLA-A*0201 on T2 cells [6]): 0.6 1/RA
B23: SSX2 41-49 (K41(b-(3-benzothienyl)Ala)) (peptide)
peptide: [Bta]ASEKIFYV
